Experimental data from patent US20250154198A1, “PEPTIDE INHIBITORS OF INTERLEUKIN-23 RECEPTOR” (Zealand Pharma A/S, priority 2021, published 2025).
Where two headings read alike, the source gives them in different places. *1 amine or outer side, *2 acyl side, *3 side chain or, on linkers, in order; H or OH if unused. Bridges are numbered along the chain shown (N, C = ends). Primed or numbered codes have the meaning given here. Where no end group is shown, it is not given here. [ ]: non-standard residue; d: D form. 4‑Aminomethyl‑phenylacetyl = 4-aminomethyl-phenylacetyl unit, its amine closes the lactam, O=C(Cc1ccc(CN[*:1])cc1)[*:2]; 1,3‑dibromopropan‑2‑one = linker (CAS 816-39-7) joining two Cys as 1,3-dithio-propan-2-one bridge -SCH2C(=O)CH2S-; 1,3‑dibromopropan‑2‑one(3) = linker giving 1,3-dithio-propan-2-one bridge -SCH2C(=O)CH2S- between Cys; 4‑Aminomethyl‑phenylacetyl″ = N-terminal cap residue, O=C(Cc1ccc(CN[*:1])cc1)[*:2]; 2Nal = N[C@@H](Cc1ccc2ccccc2c1)C(=O)O; AEF = NCCOc1ccc(C[C@H](N)C(=O)O)cc1; 3Pal = N[C@@H](Cc1cccnc1)C(=O)O; αMeL = CC(C)C[C@](C)(N)C(=O)O; CH2COCH2 = O=C(C[*:1])C[*:2]; 3Amb = NCc1cccc(C(=O)O)c1; Dab = NCC[C@H](N)C(=O)O

Assays:
[1] = target: T1, human IL-23R endogenously expressed on DB cells (CRL-2289) (human, UniProt Q5VWK5 24-629); experiment: cell-based or functional assay
T1 sequence (looked up): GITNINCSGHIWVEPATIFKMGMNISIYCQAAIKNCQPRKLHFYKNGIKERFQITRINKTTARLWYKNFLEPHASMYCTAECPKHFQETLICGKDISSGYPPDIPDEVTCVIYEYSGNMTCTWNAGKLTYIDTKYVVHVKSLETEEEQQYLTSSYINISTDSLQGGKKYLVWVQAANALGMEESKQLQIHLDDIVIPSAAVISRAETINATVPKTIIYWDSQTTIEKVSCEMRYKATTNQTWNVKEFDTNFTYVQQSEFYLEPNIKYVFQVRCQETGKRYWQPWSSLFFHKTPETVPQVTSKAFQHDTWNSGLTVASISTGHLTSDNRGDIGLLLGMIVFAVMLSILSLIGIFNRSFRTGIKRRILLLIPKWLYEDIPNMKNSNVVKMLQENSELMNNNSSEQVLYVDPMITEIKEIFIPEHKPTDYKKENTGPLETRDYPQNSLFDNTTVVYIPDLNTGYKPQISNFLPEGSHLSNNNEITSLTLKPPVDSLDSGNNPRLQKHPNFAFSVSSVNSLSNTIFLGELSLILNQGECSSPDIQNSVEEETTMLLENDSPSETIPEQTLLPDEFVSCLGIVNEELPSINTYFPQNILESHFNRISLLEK

[2] = target: T2, Nluc-IL23R fusion protein (human, UniProt Q5VWK5 22-629); experiment: BRET displacement of TAMRA-labelled peptide, Nluc-IL23R membranes
T2 construct: range 22-629; Stably expressed in HEK293 cells; also called hIL-23R; human IL-23R fused to a Nanoluc luciferase enzyme; not shown: Nanoluc luciferase (Promega N1371 plasmid) at the N-terminus
T2 sequence (looked up): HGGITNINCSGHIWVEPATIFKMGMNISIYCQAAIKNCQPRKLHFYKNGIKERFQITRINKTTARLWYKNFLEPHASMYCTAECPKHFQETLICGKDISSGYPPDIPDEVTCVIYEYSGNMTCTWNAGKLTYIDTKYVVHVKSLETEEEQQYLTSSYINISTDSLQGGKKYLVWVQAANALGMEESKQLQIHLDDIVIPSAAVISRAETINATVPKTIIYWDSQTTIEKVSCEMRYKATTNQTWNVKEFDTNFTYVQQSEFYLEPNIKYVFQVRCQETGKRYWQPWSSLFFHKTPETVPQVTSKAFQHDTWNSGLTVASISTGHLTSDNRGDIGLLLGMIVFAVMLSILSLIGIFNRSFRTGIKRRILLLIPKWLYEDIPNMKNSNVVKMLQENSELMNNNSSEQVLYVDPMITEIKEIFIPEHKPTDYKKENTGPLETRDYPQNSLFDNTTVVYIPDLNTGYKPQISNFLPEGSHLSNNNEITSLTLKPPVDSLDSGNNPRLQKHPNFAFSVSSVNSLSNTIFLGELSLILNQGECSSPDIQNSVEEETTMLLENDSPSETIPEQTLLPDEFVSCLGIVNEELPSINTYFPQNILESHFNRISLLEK

[3] = target: T1, human IL-23R endogenously expressed on …; experiment: cell-based or functional assay; remark: listed apart in the source
[4] = target: T1, human IL-23R endogenously expressed on …; experiment: cell-based or functional assay; remark: listed apart in the source
[5] = target: T1, human IL-23R endogenously expressed on …; experiment: cell-based or functional assay; remark: listed apart in the source
[6] = target: T1, human IL-23R endogenously expressed on …; experiment: cell-based or functional assay; remark: listed apart in the source

B1: Compound 78 (peptide)
peptide: [3Amb]SCWQC[AEF][2Nal][αMeL]ER[3Pal]-NH2
modifications: lactam (positions not given here); linker 3-6 via CH2COCH2; not fully specified (bridges); printed as [(3-Aminomethyl)benzoyl](1c)*SC(2a)WQC(2a)[Y(2-aminoethoxy)][2-Nal][2-Me-Leu]E(1c)R[3-(3-Pyridyl)-Ala]-[NH2]
- IC50 (pSTAT3) [1]: 0.132 nM
- Ki [2]: 20.5 pM

B2: Compound 80 (peptide)
peptide: [4‑Aminomethyl‑phenylacetyl]SCWQC[AEF][2Nal][αMeL]E[dR]-NH2
modifications: lactam (positions not given here); linker 3-6 via CH2COCH2; not fully specified (bridges); printed as [4-Aminomethyl-phenylacetyl](1c)*SC(2a)WQC(2a)[Y(2-aminoethoxy)][2-Nal][2-Me-Leu]E(1c)[{d}R]-[NH2]
- IC50 (pSTAT3) [1]: 10.5 nM
- Ki [2]: 150 pM

B3: Compound 81 (peptide)
peptide: [4‑Aminomethyl‑phenylacetyl]SCWQC[AEF][2Nal][αMeL]ES-NH2
modifications: lactam (positions not given here); linker 3-6 via CH2COCH2; not fully specified (bridges); printed as [4-Aminomethyl-phenylacetyl](1c)*SC(2a)WQC(2a)[Y(2-aminoethoxy)][2-Nal][2-Me-Leu]E(1c)S-[NH2]
- IC50 (pSTAT3) [1]: 20.7 nM
- Ki [2]: 318 pM

B4: Compound 82 (peptide)
peptide: [4‑Aminomethyl‑phenylacetyl]SCWQC[AEF][2Nal][αMeL]E[Dab]-NH2
modifications: lactam (positions not given here); linker 3-6 via CH2COCH2; not fully specified (bridges); printed as [4-Aminomethyl-phenylacetyl](1c)*SC(2a)WQC(2a)[Y(2-aminoethoxy)][2-Nal][2-Me-Leu]E(1c)[Dab]-[NH2]
- IC50 (pSTAT3) [1]: 11.1 nM
- Ki [2]: 66.5 pM

B5: Compound 120 (peptide)
peptide: [4‑Aminomethyl‑phenylacetyl]SCWQC[AEF][2Nal][αMeL]E[Dab][3Pal]-NH2
modifications: lactam N-10; linker 3-6 via 1,3‑dibromopropan‑2‑one(3)
- IC50 (pSTAT3) [1]: 0.0542 nM
- Ki [2]: 9.38 pM

B6: Compound 122 (peptide)
peptide: [4‑Aminomethyl‑phenylacetyl″]SEWQ[Dab][AEF][2Nal][αMeL]E[Dab][3Pal]-NH2
modifications: lactam N-10, 3-6
SMILES: CC(C)C[C@]1(C)NC(=O)[C@H](Cc2ccc3ccccc3c2)NC(=O)[C@H](Cc2ccc(OCCN)cc2)NC(=O)[C@@H]2CCNC(=O)CC[C@H](NC(=O)[C@H](CO)NC(=O)Cc3ccc(cc3)CNC(=O)CC[C@@H](C(=O)N[C@@H](CCN)C(=O)N[C@@H](Cc3cccnc3)C(N)=O)NC1=O)C(=O)N[C@@H](Cc1c[nH]c3ccccc13)C(=O)N[C@@H](CCC(N)=O)C(=O)N2
- IC50 (pSTAT3) [1]: 0.0277 nM
- Ki [2]: 5.41 pM

B7: Compound 125 (peptide)
peptide: [4‑Aminomethyl‑phenylacetyl]SEWQ[Dab][AEF][2Nal][αMeL]E[Dab]-NH2
modifications: lactam N-10, 3-6
- IC50 (pSTAT3) [1]: 21.2 nM
- Ki [2]: 599 pM

B8: Compound 137 (peptide)
peptide: [4‑Aminomethyl‑phenylacetyl]SEWQ[Dab][AEF][2Nal][αMeL]E-{NH‑3‑aminopropanoyl}
modifications: lactam N-10, 3-6
- IC50 (pSTAT3) [1]: 24.1 nM
- Ki [2]: 518 pM

B9: Compound 155 (peptide)
peptide: Ac-KTCWQC[AEF][2Nal][αMeL]E[Dab][3Pal]-NH2
modifications: lactam 1-10; linker 3-6 via 1,3‑dibromopropan‑2‑one(3)
- IC50 (pSTAT3) [1]: 0.0305 nM
- Ki [2]: 8.05 pM

B10: Compound 7 (peptide)
peptide: Ac-DKSCWQCWWLER-NH2
modifications: lactam 2-11; linker 4-7 via 1,3‑dibromopropan‑2‑one
- IC50 (pSTAT3) [1]: 159 nM
- IC50 (pSTAT3) [3]: 159 nM

B11: Compound 10 (peptide)
peptide: Ac-ESCWQCWWLKR-NH2
modifications: lactam 1-10; linker 3-6 via 1,3‑dibromopropan‑2‑one
- IC50 (pSTAT3) [1]: 617 nM
- IC50 (pSTAT3) [4]: 617 nM

B12: Compound 16 (peptide)
peptide: DESCXQCWWLKR
HELM: PEPTIDE1{[ac].D.E.S.C.[Cc1cccc2c(C[C@H](N[*:1])C(=O)[*:2])c[nH]c12].Q.C.W.W.L.K.R.[am]}|CHEM1{[O=C(C[*:1])C[*:2]]}$PEPTIDE1,PEPTIDE1,3:R3-12:R3|PEPTIDE1,CHEM1,5:R3-1:R1|PEPTIDE1,CHEM1,8:R3-1:R2$$$V2.0
SMILES: CC(=O)N[C@@H](CC(=O)O)C(=O)N[C@H]1CCC(=O)NCCCC[C@@H](C(=O)N[C@@H](CCCNC(=N)N)C(N)=O)NC(=O)[C@H](CC(C)C)NC(=O)[C@H](Cc2c[nH]c3ccccc23)NC(=O)[C@H](Cc2c[nH]c3ccccc23)NC(=O)[C@@H]2CSCC(=O)CSC[C@H](NC(=O)[C@H](CO)NC1=O)C(=O)N[C@@H](Cc1c[nH]c3c(C)cccc13)C(=O)N[C@@H](CCC(N)=O)C(=O)N2
- IC50 (pSTAT3) [5]: 461 nM
- IC50 (pSTAT3) [1]: 461 nM

B13: Compound 20 (peptide)
peptide: Ac-DKSCWQCW[2Nal]LER-NH2
modifications: lactam 2-11; bridge 4-7; not fully specified (bridges); printed as [Ac]-DK(1c)SC(2d)WQC(2d)W[2-Nal]LE(1c)R-[NH2]
- IC50 (pSTAT3) [1]: 79.2 nM
- IC50 (pSTAT3) [6]: 79.2 nM

B14: Compound 21 (peptide)
peptide: Ac-DKSCWQCW[2Nal]LER-NH2
modifications: lactam 2-11; bridge 4-7; not fully specified (bridges); printed as [Ac]-DK(1c)SC(2e)WQC(2e)W[2-Nal]LE(1c)R-[NH2]
- IC50 (pSTAT3) [1]: > 1 µM
- IC50 (pSTAT3) [6]: > 1 µM

B15: Compound 22 (peptide)
peptide: Ac-DKSCWQCW[2Nal]LER-NH2
modifications: lactam 2-11; bridge 4-7; not fully specified (bridges); printed as [Ac]-DK(1c)SC(2f)WQC(2f)W[2-Nal]LE(1c)R-[NH2]
- IC50 (pSTAT3) [1]: > 1 µM
- IC50 (pSTAT3) [6]: > 1 µM
